Patent US20240279356A1 (Xencor, published 2024)
Substitutions are numbered along the chain they refer to.

How the values were obtained:
human MSLN antigen [1] = biological target: T1, human MSLN antigen (human, UniProt Q13421 296-580, limits assumed); experiment: Octet BLI on human MSLN antigen (Example 2B(a)); KD quoted in the FIG. 35 legend
T1 construct: Soluble antigen for BLI; also called Mesothelin; MESO
Source text: (§1) Variants of MESO-C were engineered by introducing point substitutions into the variable heavy region (VH) and the variable light region (VL) to generate 11 VH variants and 16 VL variants (sequences for which are depicted in FIG. 18 as H1.1-H1.13 and in FIG. 19 as L1.1-L1.18). An additional 4 VL variants were generated by combining useful point substitutions (sequences for which are depicted in FIG. 19 as L1.19-L1.22). WT and variant variable heavy regions were paired with WT and variant variable light regions to generate variant variable regions (Fvs) which were produced in the context of anti-MSLN×anti-CD3 bispecific antibodies. The bispecific antibodies were screened for MSLN binding affinity using Octet®, a BioLayer Interferometry (BLI)-based method. Experimental steps for Octet® generally include the following: Immobilization (capture of ligand to a biosensor); Association (dipping of ligand-coated biosensors into wells containing the analyte); and Dissociation (returning of biosensors to well containing buffer). In an initial screening, anti-human Fc sensors were used to capture the bispecific mAbs and dipped into human MSLN antigen (one concentration to screen large library). The resulting dissociation constant of illustrative variants (KD), association rate (kₐ), dissociation rate (kd), as well as sensorgram response are depicted in FIG. 20. In further screening of favorite variants identified in the initial screen (and combination variants), bispecific mAbs were dipped into multiple concentrations of human MSLN antigen, data for which are depicted in FIG. 21 (from various screens).

cyno MSLN [2] = biological target: T2, cyno MSLN (Macaca fascicularis (cynomolgus)); experiment: Octet BLI; bsAb on anti-human Fc sensor, cyno MSLN as analyte, one concentration
T2 construct: soluble antigen for Octet; also called cynomolgus MSLN

human MSLN antigen [3] = biological target: T1, human MSLN antigen; experiment: Octet BLI; bsAb on anti-human Fc sensor, human MSLN as analyte, one concentration
Source text: as §1

cyno MSLN [4] = biological target: T2, cyno MSLN; experiment: Octet BLI, several concentrations; lower table, column head only 'cyno MSLN (M)'
[5] = biological target: T3, MSLN on OVCAR8 (MSLN^high) and other cancer cell lines (UniProt Q13421 296-598); experiment: flow cytometry on OVCAR8 cells, detected with A647-labelled anti-human Fc mAb
T3 construct: whole, on cells; Endogenous surface MSLN; also called MSLN^high OVCAR8 cells; MSLN^low SKOV3 and HT29 cells
Procedure: Next, the effect of MSLN binding affinity was investigated. 100,000 OVCAR8 (MSLN^high) cells were treated with the indicated concentrations of the indicated test articles. […] Further, XENP32852 and XENP32853 which differ only in CD3 binding affinity have identical binding to OVCAR8 cells confirming that avid binding is due to the MSLN binding domain.

human MSLN antigen [6] = biological target: T1, human MSLN antigen; experiment: MSLN KD of the binding domain (Octet BLI, Example 2B(a)); quoted in Example 3B(a)
Source text: as §1

T1 sequence (Q13421 other isoform, or with tags, fused parts or gaps limits assumed): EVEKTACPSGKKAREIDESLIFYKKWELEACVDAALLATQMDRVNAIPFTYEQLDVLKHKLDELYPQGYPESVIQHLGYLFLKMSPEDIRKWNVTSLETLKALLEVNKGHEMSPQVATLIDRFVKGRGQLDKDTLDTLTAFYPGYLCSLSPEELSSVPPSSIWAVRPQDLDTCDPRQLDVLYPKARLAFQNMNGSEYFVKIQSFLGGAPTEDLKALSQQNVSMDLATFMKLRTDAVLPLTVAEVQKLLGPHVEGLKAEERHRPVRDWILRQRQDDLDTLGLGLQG
T3 sequence (Q13421 other isoform, or with tags, fused parts or gaps limits assumed): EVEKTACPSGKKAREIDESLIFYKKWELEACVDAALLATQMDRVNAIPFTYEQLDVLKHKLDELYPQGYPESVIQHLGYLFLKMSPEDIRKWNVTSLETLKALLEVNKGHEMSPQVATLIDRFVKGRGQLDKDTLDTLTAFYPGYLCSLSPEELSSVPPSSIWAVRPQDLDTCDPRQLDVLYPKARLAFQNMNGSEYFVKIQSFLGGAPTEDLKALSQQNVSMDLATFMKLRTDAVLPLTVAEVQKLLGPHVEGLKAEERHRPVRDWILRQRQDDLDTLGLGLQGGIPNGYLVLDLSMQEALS

B1: XENP32552 (bispecific antibody)
heavy: QVQLVQSGAEVKKPGASVKVSCKASGYTFTSYWMHWVRQAPGQGLEWMGWIHPNSDNTIYYEKFQGRVTMTVDKSISTAYMELSRLRSDDTAVYYCAIIITPVVPKFDYWGQGTLVTVSSASTKGPSVFPLAPSSKSTSGGTAALGCLVKDYFPEPVTVSWNSGALTSGVHTFPAVLQSSGLYSLSSVVTVPSSSLGTQTYICNVNHKPSDTKVDKKVEPKSCDKTHTCPPCPAPPVAGPSVFLFPPKPKDTLMISRTPEVTCVVVDVKHEDPEVKFNWYVDGVEVHNAKTKPREEEYNSTYRVVSVLTVLHQDWLNGKEYKCKVSNKALPAPIEKTISKAKGQPREPQVYTLPPSREEMTKNQVSLTCDVSGFYPSDIAVEWESDGQPENNYKTTPPVLDSDGSFFLYSKLTVDKSRWEQGDVFSCSVMHEALHNHYTQKSLSLSPGK
scFv-Fc: not shown
light: DIVMTQSPDSLAVSLGERATINCKASHDVGTSVAWYQQKPGQSPKLLIYWASTRHTGVPDRFTGSGSGTDFTLTISSLQAEDVAVYFCQQYSSYPLTFGAGTKLEIKRTVAAPSVFIFPPSDEQLKSGTASVVCLLNNFYPREAKVQWKVDNALQSGNSQESVTEQDSKDSTYSLSSTLTLSKADYEKHKVYACEVTHQGLSSPVTKSFNRGEC
notes: 1+1 Fab-scFv-Fc
B1 showed a Kd (human MSLN antigen [1]) of 9.2 nM, a Kd (cyno MSLN [2]) of 32.1 nM and a Response (cyno MSLN [2]) of 0.827. The koff (cyno MSLN [2]) was 0.0148 s⁻¹, the kon (cyno MSLN [2]) was 459000 M⁻¹ s⁻¹ and the Kd (human MSLN antigen [3]) was 30 nM. The Response (human MSLN antigen [3]) was 0.915, the koff (human MSLN antigen [3]) was 0.0147 s⁻¹ and the kon (human MSLN antigen [3]) was 491000 M⁻¹ s⁻¹. It also gave a Kd (cyno MSLN [4]) of 10 nM.

B2: XENP32853 (bispecific antibody)
heavy 1: B1 heavy with W50M
heavy 2: QVQLVQSGAEVKKPGASVKVSCKASGYTFTSYWMHWVRQAPGQGLEWMGMIHPNSDNTIYYEKFQGRVTMTVDKSISTAYMELSRLRSDDTAVYYCAIIITPVVPKFDYWGQGTLVTVSSASTKGPSVFPLAPSSKSTSGGTAALGCLVKDYFPEPVTVSWNSGALTSGVHTFPAVLQSSGLYSLSSVVTVPSSSLGTQTYICNVNHKPSNTKVDKKVEPKSCGGGGSGGGGSQAVVTQEPSLTVSPGGTVTLTCGSSTGAVTTSNYANWVQQKPGKSPRGLIGGTNKRAPGVPARFSGSLLGGKAALTISGAQPEDEADYYCALWYSNHWVFGGGTKLTVLGKPGSGKPGSGKPGSGKPGSEVQLVESGGGLVQPGGSLRLSCAASGFTFSTYAMNWVRQAPGKGLEWVGRIRSKYNNYATYYADSVKGRFTISRDDSKNTLYLQMNSLRAEDTAVYYCVRHGNFGDEYVSWFAYWGQGTLVTVSSEPKSSDKTHTCPPCPAPPVAGPSVFLFPPKPKDTLMISRTPEVTCVVVDVKHEDPEVKFNWYVDGVEVHNAKTKPREEQYNSTYRVVSVLTVLHQDWLNGKEYKCKVSNKALPAPIEKTISKAKGQPREPQVYTLPPSREQMTKNQVKLTCLVKGFYPSDIAVEWESNGQPENNYKTTPPVLDSDGSFFLYSKLTVDKSRWQQGNVFSCSVMHEALHNHYTQKSLSLSPGK
light: B1 light with S92Y
notes: 2+1 Fab2-scFv-Fc; copies: 1 + 1 + 2
In the case of B2, the Kd (human MSLN antigen [1]) is reported as 3.9 nM and the “EC50 (read off the curve)” value [5] is reported as about 0.06 µg/mL.

B3: XENP31717 (bispecific antibody)
heavy 1: B1 heavy with W50M
heavy 2: QVQLVQSGAEVKKPGASVKVSCKASGYTFTSYWMHWVRQAPGQGLEWMGMIHPNSDNTIYYEKFQGRVTMTVDKSISTAYMELSRLRSDDTAVYYCAIIITPVVPKFDYWGQGTLVTVSSASTKGPSVFPLAPSSKSTSGGTAALGCLVKDYFPEPVTVSWNSGALTSGVHTFPAVLQSSGLYSLSSVVTVPSSSLGTQTYICNVNHKPSNTKVDKKVEPKSCGGGGSGGGGSQAVVTQEPSLTVSPGGTVTLTCGSSTGAVTTSNYANWVQQKPGKSPRGLIGGTNKRAPGVPARFSGSLLGGKAALTISGAQPEDEADYYCALWYSNHWVFGGGTKLTVLGKPGSGKPGSGKPGSGKPGSEVQLVESGGGLVQPGGSLRLSCAASGFTFSTYAMNWVRQAPGKGLEWVGRIRSKANNYATYYADSVKGRFTISRDDSKNTLYLQMNSLRAEDTAVYYCVRHGNFGDSYVSWFAYWGQGTLVTVSSGGGGSGGGGSKTHTCPPCPAPPVAGPSVFLFPPKPKDTLMISRTPEVTCVVVDVKHEDPEVKFNWYVDGVEVHNAKTKPREEQYNSTYRVVSVLTVLHQDWLNGKEYKCKVSNKALPAPIEKTISKAKGQPREPQVYTLPPSREQMTKNQVKLTCLVKGFYPSDIAVEWESNGQPENNYKTTPPVLDSDGSFFLYSKLTVDKSRWQQGNVFSCSVMHEALHNHYTQKSLSLSPGK
light: B1 light
notes: 2+1 Fab2-scFv-Fc anti-MSLN x anti-CD3
B3 was tested, and the Kd (human MSLN antigen [1]) was 0.28 nM and the “EC50 (read off the curve)” value [5] was about 0.04 µg/mL.

B4: XENP32852 (bispecific antibody)
heavy 1: B1 heavy with W50M
heavy 2: B3 heavy 2
light: B1 light with S92Y
notes: as for B2
B4 was tested, and the Kd (human MSLN antigen [1]) was 3.9 nM and the “EC50 (read off the curve)” value [5] was about 0.06 µg/mL.

B5: XENP32562 (bispecific antibody)
heavy: B1 heavy with W50M
scFv-Fc: not shown
light: B1 light with G30L
notes: 1+1 Fab-scFv-Fc
In the case of B5, the Kd (human MSLN antigen [1]) is reported as 0.74 nM, the Kd (cyno MSLN [2]) is reported as 0.887 nM and the Response (cyno MSLN [2]) is reported as 0.9. For the same binder, the koff (cyno MSLN [2]) was 0.000594 s⁻¹, the kon (cyno MSLN [2]) was 669000 M⁻¹ s⁻¹ and the “EC50 (read off the curve)” value [5] was about 0.2 µg/mL. For the same binder, the Kd (human MSLN antigen [3]) was 0.628 nM, the Response (human MSLN antigen [3]) was 1.01 and the koff (human MSLN antigen [3]) was 0.000409 s⁻¹. For the same binder, the kon (human MSLN antigen [3]) was 651000 M⁻¹ s⁻¹.

B6: XENP32561 (bispecific antibody)
heavy: B1 heavy with W50M
scFv-Fc: not shown
light: B1 light with D28S
notes: 1+1 Fab-scFv-Fc
B6 was tested, and the Kd (human MSLN antigen [1]) was 0.45 nM, the Kd (cyno MSLN [2]) was 0.413 nM and the Response (cyno MSLN [2]) was 0.976. The koff (cyno MSLN [2]) was 0.000248 s⁻¹, the kon (cyno MSLN [2]) was 600000 M⁻¹ s⁻¹ and the “EC50 (read off the curve)” value [5] was about 0.2 µg/mL. For the same binder, the Kd (human MSLN antigen [3]) was 0.355 nM, the Response (human MSLN antigen [3]) was 1.08 and the koff (human MSLN antigen [3]) was 0.000215 s⁻¹. It also gave a kon (human MSLN antigen [3]) of 606000 M⁻¹ s⁻¹.

B7: XENP32745 (bispecific antibody)
heavy 1: B1 heavy with W50M
heavy 2: B3 heavy 2
light: B1 light with D28S
notes: 2+1 Fab2-scFv-Fc
In the case of B7, the Kd (human MSLN antigen [1]) is reported as 0.45 nM and the “EC50 (read off the curve)” value [5] is reported as about 0.05 µg/mL.

B8: XENP32748 (bispecific antibody)
heavy 1: B1 heavy with W50M
heavy 2: B3 heavy 2
light: B1 light with G30L
notes: 2+1 Fab2-scFv-Fc
B8 was tested, and the Kd (human MSLN antigen [1]) was 0.74 nM and the “EC50 (read off the curve)” value [5] was about 0.04 µg/mL.

B9: XENP32751 (bispecific antibody)
heavy: B1 heavy with W50M
Fab-scFv-Fc: B3 heavy 2
light: B1 light with S32Y
notes: as for B2
In the case of B9, the Kd (human MSLN antigen [1]) is reported as about 12.8 nM and the “EC50 (read off the curve)” value [5] is reported as about 0.05 µg/mL.

B10: MESO-C[MSLN]_H1_L1.9 (Fab, V domains shown)
VH: QVQLVQSGAEVKKPGASVKVSCKASGYTFTSYWMHWVRQAPGQGLEWMGMIHPNSDNTIYYEKFQGRVTMTVDKSISTAYMELSRLRSDDTAVYYCAIIITPVVPKFDYWGQGTLVTVSS
VL: DIVMTQSPDSLAVSLGERATINCKASHDVGTSVAWYQQKPGQSPKLLIYWASTRHTGVPDRFTGSGSGTDFTLTISSLQAEDVAVYFCQQYYSYPLTFGAGTKLEIK
notes: It was tested as the Fab arm(s) of anti-MSLN x anti-CD3 bsAbs
In the case of B10, the Kd (human MSLN antigen [6]) is reported as 3.9 nM.

B11: MESO-C[MSLN]_H1.3_L1 (Fab, V domains shown)
VH: B10 VH with M50W
VL: B10 VL with Y92S
notes: as for B10
In the case of B11, the Kd (human MSLN antigen [6]) is reported as 9.2 nM.

B12: MESO-C[MSLN]_H1_L1.5 (Fab, V domains shown)
VH: B10 VH
VL: B10 VL with S32Y, Y92S
notes: as for B10
B12 gave a Kd (human MSLN antigen [6]) of about 12.8 nM.

B13: MESO-C[MSLN]_H1.12_L1.9 (Fab, V domains shown)
VH: B10 VH with E62Q
VL: B10 VL
notes: as for B10
B13 was tested, and the Kd (human MSLN antigen [6]) was 10.2 nM.
